Biological target: human HSF2-YFP (human) (UniProt Q03933)
Assay: fluorescent three-hybrid assay

human HSF2-YFP (human), sequence (Q03933 whole entry): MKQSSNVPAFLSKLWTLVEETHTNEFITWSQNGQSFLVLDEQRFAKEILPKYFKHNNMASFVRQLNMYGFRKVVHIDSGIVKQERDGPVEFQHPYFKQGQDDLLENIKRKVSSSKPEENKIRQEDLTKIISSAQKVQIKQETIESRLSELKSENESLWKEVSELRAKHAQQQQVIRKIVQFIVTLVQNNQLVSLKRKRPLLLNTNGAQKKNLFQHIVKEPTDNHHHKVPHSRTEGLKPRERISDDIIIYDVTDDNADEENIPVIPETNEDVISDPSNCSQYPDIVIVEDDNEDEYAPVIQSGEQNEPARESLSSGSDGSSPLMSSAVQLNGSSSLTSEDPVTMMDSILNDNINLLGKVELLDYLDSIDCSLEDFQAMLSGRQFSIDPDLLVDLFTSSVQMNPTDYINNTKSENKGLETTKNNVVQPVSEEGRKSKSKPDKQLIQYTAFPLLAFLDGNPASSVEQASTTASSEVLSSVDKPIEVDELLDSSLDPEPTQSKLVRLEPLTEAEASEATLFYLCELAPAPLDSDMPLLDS
CBP-HA, Q92793 1-2442 (natural protein), sequence (Q92793 whole entry): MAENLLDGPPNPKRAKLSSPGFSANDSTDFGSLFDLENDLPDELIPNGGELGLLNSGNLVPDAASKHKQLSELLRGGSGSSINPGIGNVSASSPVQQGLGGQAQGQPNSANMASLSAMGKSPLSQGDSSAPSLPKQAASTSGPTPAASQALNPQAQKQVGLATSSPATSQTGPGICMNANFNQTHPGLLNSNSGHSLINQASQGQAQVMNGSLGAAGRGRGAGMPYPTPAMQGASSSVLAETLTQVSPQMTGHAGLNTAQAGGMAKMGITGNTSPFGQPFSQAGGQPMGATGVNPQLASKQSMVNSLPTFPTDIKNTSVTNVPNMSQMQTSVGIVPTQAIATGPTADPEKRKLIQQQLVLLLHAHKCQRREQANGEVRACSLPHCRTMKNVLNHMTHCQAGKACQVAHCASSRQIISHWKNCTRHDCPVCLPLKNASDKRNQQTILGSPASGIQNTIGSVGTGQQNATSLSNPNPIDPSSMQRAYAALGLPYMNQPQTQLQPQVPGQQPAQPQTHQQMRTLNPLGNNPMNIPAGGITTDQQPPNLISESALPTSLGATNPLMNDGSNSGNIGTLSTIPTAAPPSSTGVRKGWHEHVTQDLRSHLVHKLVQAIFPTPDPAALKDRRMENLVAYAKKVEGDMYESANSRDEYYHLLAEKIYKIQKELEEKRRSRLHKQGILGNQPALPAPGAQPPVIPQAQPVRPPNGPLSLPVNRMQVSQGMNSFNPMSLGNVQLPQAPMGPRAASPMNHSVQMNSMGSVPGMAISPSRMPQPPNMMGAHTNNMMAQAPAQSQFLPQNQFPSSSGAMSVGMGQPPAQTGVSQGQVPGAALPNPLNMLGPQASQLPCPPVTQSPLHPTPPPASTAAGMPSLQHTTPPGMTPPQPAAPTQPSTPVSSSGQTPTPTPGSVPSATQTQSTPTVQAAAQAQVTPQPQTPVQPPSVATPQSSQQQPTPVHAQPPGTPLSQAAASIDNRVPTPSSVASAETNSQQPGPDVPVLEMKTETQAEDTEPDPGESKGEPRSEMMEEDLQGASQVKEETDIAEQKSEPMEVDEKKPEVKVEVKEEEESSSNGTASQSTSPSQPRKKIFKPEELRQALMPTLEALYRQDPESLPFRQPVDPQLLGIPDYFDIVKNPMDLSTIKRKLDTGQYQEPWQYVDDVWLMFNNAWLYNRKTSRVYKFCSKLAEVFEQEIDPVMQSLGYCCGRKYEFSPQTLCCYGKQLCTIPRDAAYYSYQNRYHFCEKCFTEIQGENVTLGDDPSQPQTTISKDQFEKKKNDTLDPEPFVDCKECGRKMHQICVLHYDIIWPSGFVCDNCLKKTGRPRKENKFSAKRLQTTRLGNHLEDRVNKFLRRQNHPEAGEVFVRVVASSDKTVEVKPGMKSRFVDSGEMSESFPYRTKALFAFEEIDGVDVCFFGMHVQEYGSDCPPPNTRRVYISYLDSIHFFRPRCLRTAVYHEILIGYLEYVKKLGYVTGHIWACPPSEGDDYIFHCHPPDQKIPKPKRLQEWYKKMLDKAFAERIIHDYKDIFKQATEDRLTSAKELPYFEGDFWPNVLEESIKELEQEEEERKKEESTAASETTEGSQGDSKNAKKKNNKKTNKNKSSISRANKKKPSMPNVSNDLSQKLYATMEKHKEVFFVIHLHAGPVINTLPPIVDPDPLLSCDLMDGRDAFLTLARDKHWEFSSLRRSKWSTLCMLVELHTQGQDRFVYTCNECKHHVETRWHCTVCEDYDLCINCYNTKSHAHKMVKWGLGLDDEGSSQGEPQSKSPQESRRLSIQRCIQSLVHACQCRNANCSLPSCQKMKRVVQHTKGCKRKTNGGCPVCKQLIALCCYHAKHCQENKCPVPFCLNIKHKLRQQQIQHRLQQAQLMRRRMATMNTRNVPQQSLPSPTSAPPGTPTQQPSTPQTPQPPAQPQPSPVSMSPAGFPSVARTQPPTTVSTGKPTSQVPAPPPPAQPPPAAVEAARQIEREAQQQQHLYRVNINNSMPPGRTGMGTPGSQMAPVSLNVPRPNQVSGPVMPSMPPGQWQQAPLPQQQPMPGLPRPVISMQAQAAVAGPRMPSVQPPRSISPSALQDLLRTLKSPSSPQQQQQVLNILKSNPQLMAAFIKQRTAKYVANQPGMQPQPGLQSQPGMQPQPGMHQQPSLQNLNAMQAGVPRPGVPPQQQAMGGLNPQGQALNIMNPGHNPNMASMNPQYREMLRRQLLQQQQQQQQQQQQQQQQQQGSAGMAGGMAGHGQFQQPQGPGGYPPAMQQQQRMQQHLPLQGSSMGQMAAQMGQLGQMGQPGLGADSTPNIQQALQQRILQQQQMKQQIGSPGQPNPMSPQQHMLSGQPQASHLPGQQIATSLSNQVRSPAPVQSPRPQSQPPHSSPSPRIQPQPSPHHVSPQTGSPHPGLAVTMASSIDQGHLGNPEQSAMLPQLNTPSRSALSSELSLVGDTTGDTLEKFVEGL

| percent of cells showing co-recruitment to the HSF2-YFP focus [%] | percent of cells showing co-recruitment with HSF2-YFP [%] | Substance |
| --- | --- | --- |
| 68.4 | – | CBP-HA, Q92793 1-2442 (natural protein) |
| 48.6 | – | EP300-HA, Q09472 1-2414 |
| – | 43.9 | endogenous CBP of BHK cells (natural protein) |
